According to US20140274782A1, “AFFINITY REAGENTS AND METHODS FOR DETECTION, PURIFICATION, AND PROTEOMIC ANALYSIS OF METHYLATED PROTEINS” (The Board of Trustees of the Leland Stanford Junior …, priority 2013, published 2014):

T1: G9a and GLP (Homo sapiens, UniProt Q96KQ7+Q9H9B1)
T1 sequence (Q96KQ7 2-1210 limits assumed): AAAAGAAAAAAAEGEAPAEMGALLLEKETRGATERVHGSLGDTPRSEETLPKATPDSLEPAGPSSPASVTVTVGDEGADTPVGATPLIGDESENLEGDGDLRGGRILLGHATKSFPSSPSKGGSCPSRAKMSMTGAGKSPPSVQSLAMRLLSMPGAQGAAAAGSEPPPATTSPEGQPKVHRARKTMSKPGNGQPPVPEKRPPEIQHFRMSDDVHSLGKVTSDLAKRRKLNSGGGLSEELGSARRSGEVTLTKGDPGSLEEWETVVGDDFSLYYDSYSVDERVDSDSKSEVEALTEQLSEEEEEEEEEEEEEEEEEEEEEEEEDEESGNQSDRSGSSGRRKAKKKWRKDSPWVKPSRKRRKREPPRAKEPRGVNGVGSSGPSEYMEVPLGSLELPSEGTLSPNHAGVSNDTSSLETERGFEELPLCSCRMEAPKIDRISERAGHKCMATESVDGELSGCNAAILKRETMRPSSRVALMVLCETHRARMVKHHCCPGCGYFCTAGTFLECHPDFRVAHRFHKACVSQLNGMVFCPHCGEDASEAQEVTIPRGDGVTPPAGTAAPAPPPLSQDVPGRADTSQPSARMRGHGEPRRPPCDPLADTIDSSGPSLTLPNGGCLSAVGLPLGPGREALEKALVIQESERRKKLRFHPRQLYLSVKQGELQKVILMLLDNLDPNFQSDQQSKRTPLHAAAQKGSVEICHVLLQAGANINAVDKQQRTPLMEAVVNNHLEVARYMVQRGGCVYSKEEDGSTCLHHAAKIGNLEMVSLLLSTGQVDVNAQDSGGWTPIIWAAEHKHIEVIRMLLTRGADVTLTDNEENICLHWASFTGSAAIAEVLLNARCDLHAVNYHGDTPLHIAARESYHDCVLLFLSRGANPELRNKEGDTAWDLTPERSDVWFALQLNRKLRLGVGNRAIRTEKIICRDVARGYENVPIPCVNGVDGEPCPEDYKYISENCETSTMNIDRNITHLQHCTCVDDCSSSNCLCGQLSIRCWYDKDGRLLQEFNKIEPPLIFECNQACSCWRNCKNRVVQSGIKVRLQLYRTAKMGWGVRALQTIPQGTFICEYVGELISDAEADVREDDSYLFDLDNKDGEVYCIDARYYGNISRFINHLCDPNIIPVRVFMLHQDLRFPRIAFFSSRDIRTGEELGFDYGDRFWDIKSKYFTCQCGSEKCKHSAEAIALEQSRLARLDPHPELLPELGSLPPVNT
T1 sequence (Q9H9B1 2-1298 limits assumed): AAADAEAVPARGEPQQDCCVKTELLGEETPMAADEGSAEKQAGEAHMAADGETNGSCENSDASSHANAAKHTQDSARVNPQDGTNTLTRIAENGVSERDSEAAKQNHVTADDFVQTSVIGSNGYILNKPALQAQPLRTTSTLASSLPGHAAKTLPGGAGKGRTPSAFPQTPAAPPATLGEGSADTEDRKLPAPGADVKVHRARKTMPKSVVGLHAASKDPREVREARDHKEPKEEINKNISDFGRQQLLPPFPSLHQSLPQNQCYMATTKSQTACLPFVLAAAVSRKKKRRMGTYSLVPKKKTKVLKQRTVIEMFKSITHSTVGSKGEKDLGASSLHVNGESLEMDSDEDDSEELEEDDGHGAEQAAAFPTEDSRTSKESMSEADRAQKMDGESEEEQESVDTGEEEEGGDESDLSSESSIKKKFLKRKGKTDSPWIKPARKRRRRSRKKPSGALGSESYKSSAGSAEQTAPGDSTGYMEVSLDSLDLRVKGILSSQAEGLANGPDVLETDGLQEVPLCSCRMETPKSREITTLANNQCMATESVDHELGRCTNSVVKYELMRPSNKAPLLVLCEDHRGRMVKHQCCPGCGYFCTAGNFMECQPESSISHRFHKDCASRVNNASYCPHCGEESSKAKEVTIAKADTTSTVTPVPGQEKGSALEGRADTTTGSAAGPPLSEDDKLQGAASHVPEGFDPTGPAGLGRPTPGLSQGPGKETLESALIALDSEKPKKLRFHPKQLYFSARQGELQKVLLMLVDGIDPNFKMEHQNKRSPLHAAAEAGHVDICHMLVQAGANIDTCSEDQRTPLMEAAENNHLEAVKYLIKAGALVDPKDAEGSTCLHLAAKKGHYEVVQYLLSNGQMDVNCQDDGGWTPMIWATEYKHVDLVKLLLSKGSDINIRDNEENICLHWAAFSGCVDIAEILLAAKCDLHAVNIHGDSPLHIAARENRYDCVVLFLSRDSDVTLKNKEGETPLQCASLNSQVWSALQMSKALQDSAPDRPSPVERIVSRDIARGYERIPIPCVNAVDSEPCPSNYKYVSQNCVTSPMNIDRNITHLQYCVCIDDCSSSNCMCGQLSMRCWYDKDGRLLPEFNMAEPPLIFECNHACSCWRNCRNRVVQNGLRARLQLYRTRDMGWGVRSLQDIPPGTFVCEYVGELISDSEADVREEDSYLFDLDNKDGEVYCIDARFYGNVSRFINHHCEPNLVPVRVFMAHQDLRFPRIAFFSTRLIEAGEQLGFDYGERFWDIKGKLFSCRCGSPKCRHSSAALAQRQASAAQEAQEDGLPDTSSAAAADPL

B1: SHKBP1 (protein, UniProt Q8TBC3 2-707, looked up)
SH3KBP1-binding protein 1: AAAATAAEGVPSRGPPGEVIHLNVGGKRFSTSRQTLTWIPDSFFSSLLSGRISTLKDETGAIFIDRDPTVFAPILNFLRTKELDPRGVHGSSLLHEAQFYGLTPLVRRLQLREELDRSSCGNVLFNGYLPPPVFPVKRRNRHSLVGPQQLGGRPAPVRRSNTMPPNLGNAGLLGRMLDEKTPPSPSGQPEEPGMVRLVCGHHNWIAVAYTQFLVCYRLKEASGWQLVFSSPRLDWPIERLALTARVHGGALGEHDKMVAAATGSEILLWALQAEGGGSEIGVFHLGVPVEALFFVGNQLIATSHTGRIGVWNAVTKHWQVQEVQPITSYDAAGSFLLLGCNNGSIYYVDVQKFPLRMKDNDLLVSELYRDPAEDGVTALSVYLTPKTSDSGNWIEIAYGTSSGGVRVIVQHPETVGSGPQLFQTFTVHRSPVTKIMLSEKHLISVCADNNHVRTWSVTRFRGMISTQPGSTPLASFKILALESADGHGGCSAGNDIGPYGERDDQQVFIQKVVPSASQLFVRLSSTGQRVCSVRSVDGSPTTAFTVLECEGSRRLGSRPRRYLLTGQANGSLAMWDLTTAMDGLGQAPAGGLTEQELMEQLEHCELAPPAPSAPSWGCLPSPSPRISLTSLHSASSNTSLSGHRGSPSPPQAEARRRGGGSFVERCQELVRSGPDLRRPPTPAPWPSSGLGTPLTPPKMKLNETSF
B2: BAZ1B (protein, UniProt Q9UIG0 1-1483, looked up)
Tyrosine-protein kinase BAZ1B: MAPLLGRKPFPLVKPLPGEEPLFTIPHTQEAFRTREEYEARLERYSERIWTCKSTGSSQLTHKEAWEEEQEVAELLKEEFPAWYEKLVLEMVHHNTASLEKLVDTAWLEIMTKYAVGEECDFEVGKEKMLKVKIVKIHPLEKVDEEATEKKSDGACDSPSSDKENSSQIAQDHQKKETVVKEDEGRRESINDRARRSPRKLPTSLKKGERKWAPPKFLPHKYDVKLQNEDKIISNVPADSLIRTERPPNKEIVRYFIRHNALRAGTGENAPWVVEDELVKKYSLPSKFSDFLLDPYKYMTLNPSTKRKNTGSPDRKPSKKSKTDNSSLSSPLNPKLWCHVHLKKSLSGSPLKVKNSKNSKSPEEHLEEMMKMMSPNKLHTNFHIPKKGPPAKKPGKHSDKPLKAKGRSKGILNGQKSTGNSKSPKKGLKTPKTKMKQMTLLDMAKGTQKMTRAPRNSGGTPRTSSKPHKHLPPAALHLIAYYKENKDREDKRSALSCVISKTARLLSSEDRARLPEELRSLVQKRYELLEHKKRWASMSEEQRKEYLKKKREELKKKLKEKAKERREKEMLERLEKQKRYEDQELTGKNLPAFRLVDTPEGLPNTLFGDVAMVVEFLSCYSGLLLPDAQYPITAVSLMEALSADKGGFLYLNRVLVILLQTLLQDEIAEDYGELGMKLSEIPLTLHSVSELVRLCLRRSDVQEESEGSDTDDNKDSAAFEDNEVQDEFLEKLETSEFFELTSEEKLQILTALCHRILMTYSVQDHMETRQQMSAELWKERLAVLKEENDKKRAEKQKRKEMEAKNKENGKVENGLGKTDRKKEIVKFEPQVDTEAEDMISAVKSRRLLAIQAKKEREIQEREMKVKLERQAEEERIRKHKAAAEKAFQEGIAKAKLVMRRTPIGTDRNHNRYWLFSDEVPGLFIEKGWVHDSIDYRFNHHCKDHTVSGDEDYCPRSKKANLGKNASMNTQHGTATEVAVETTTPKQGQNLWFLCDSQKELDELLNCLHPQGIRESQLKERLEKRYQDIIHSIHLARKPNLGLKSCDGNQELLNFLRSDLIEVATRLQKGGLGYVEETSEFEARVISLEKLKDFGECVIALQASVIKKFLQGFMAPKQKRRKLQSEDSAKTEEVDEEKKMVEEAKVASALEKWKTAIREAQTFSRMHVLLGMLDACIKWDMSAENARCKVCRKKGEDDKLILCDECNKAFHLFCLRPALYEVPDGEWQCPACQPATARRNSRGRNYTEESASEDSEDDESDEEEEEEEEEEEEEDYEVAGLRLRPRKTIRGKHSVIPPAARSGRRPGKKPHSTRRSQPKAPPVDDAEVDELVLQTKRSSRRQSLELQKCEEILHKIVKYRFSWPFREPVTRDEAEDYYDVITHPMDFQTVQNKCSCGSYRSVQEFLTDMKQVFTNAEVYNCRGSHVLSCMVKTEQCLVALLHKHLPGHPYVRRKRKKFPDRLAEDEGDSEPEAVGQSRGRRQKK

What was measured:
3×MBT domain of L3MBTL1 = test: Triple SILAC pull-down, 3xMBT/3xMBTD355N ratio (cytoplasmic, nuclear and chromatin fractions of 293T cells); type: binding, human; details: SILAC ratio 3xMBT vs 3xMBTD355N pull-down, 293T cells, all values in log base 2; for 3xMBT/D355N UNC Heavy: experiment with UNC0638 in heavy SILAC media; for 3xMBT/D355N UNC Light: experiment with UNC0638 in light SILAC media;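 for all read-outs here: proteins quantified with MaxQuant, requiring at least two unique peptides and quantification in both label directions, normalized to the mean of proteins from a digested loading control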
G9a and GLP = target: T1, G9a and GLP; test: Triple SILAC pull-down after UNC0638 treatment of 293T cells, DMSO/UNC0638 ratio of protein captured by 3×MBT; type: cell-based; parameters: endogenous in cells; host or cells: HEK 293T; details: all values in log base 2; for Relative to UNC0638 UNC Heavy / Relative to UNC0638 UNC Light: SILAC ratio DMSO relative to UNC0638, pull-down with 3xMBT; for Relative to UNC0638 UNC Heavy: UNC0638 in heavy SILAC media; for Relative to UNC0638 UNC Light: UNC0638 in light SILAC media; for Relative to UNC0638 Average: average of UNC Light and UNC Heavy experiments;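 for all read-outs here: mass spectrometry (Q-Exactive) SILAC quantitation, DMSO/UNC0638 ratio computed after subtracting 3×MBTD355N mutant pull-down background, only proteins with at least twofold 3×MBT over mutant signal considered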

| Molecule | 3xMBT/D355N UNC Heavy (3×MBT domain of L3MBTL1) [log base 2] | 3xMBT/D355N UNC Light (3×MBT domain of L3MBTL1) [log base 2] | Relative to UNC0638 UNC Heavy (G9a and GLP) [log base 2] | Relative to UNC0638 UNC Light (G9a and GLP) [log base 2] | Relative to UNC0638 Average (G9a and GLP) [log base 2] |
| --- | --- | --- | --- | --- | --- |
| B1 | 2.90 | 2.73 | 0.71 | −0.94 | −0.12 |
| B2 | 1.37 | 0.19 | 0.14 | −0.38 | −0.12 |
